The target in assay [1] is membrane-bound human FcγRIIB on Raji cells (human) (UniProt P31994). Kind of assay: FACS on Raji cells (FACS007), constant aggregated IgG; competitor SM101 0.5 µg/µL.
Assay [2] has the same target. Put plainly: FACS on Raji cells (FACS007), constant aggregated IgG; competitor SM101 0.125 µg/µL.
Assay [3] has the same target. Kind of assay: FACS on Raji cells (FACS007), constant aggregated IgG; competitor SM101 0.0625 µg/µL.
Assay [4] shares this target. Kind of assay: FACS on Raji cells (FACS021), constant aggregated IgG; competitor SM101 IMP 0.25 µg/µL.
Assay [5] shares this target. Kind of assay: FACS on Raji cells (FACS021), constant aggregated IgG; competitor SM101 IMP 0.125 µg/µL.
Assay [6] has the same target. Kind of assay: FACS on Raji cells (FACS021), constant aggregated IgG; competitor SM101 IMP 0.0078 µg/µL.
For assay [7] the target is unchanged. Put plainly: FACS on Raji cells (FACS021), constant aggregated IgG; competitor SM101 IMP 0.0156 µg/µL.
Assay [8] shares this target. Kind of assay: FACS on Raji cells (FACS021), constant aggregated IgG; competitor SM101 IMP 0.0625 µg/µL.
For assay [9] the target is unchanged. Put plainly: FACS on Raji cells (FACS021), constant aggregated IgG; competitor SM101 Ref. Std. 0.25 µg/µL.
Assay [10] has the same target. Kind of assay: FACS on Raji cells, aggregated Beriglobin at 5.0 (µg/µL); mean of three batches.
For assay [11] the target is unchanged. Put plainly: FACS on Raji cells (FACS021), constant aggregated IgG; competitor SM101 Ref. Std. 0.0156 µg/µL.
Assay [12] shares this target. Put plainly: FACS on Raji cells (FACS021), constant aggregated IgG; competitor SM101 Ref. Std. 0.03125 µg/µL.
Assay [13] shares this target. Kind of assay: FACS on viable Raji cells (FcγRIIB) with aggregated Beriglobin and no SM101; detected with anti-human IgG(H+L)-PE secondary antibody.
For assay [14] the target is unchanged. Put plainly: FACS on Raji cells (FcγRIIB) with constant aggregated Beriglobin and no CSA; detected with anti-human IgG(H+L)-PE; secondary antibody alone (SM101_sek AK.fcs) has median 137.
The target is the same in assay [15]. Kind of assay: FACS: 0.1E6 Raji cells (FcγRIIB) with 2.5 µg aggregated Beriglobin at the stated pH; 1/200 anti-human IgG(H+L)-PE; drawn table, secondary antibody control not subtracted; pH 6.7. For orientation: Flow cytometry measures light scatter and fluorescence of single cells or particles in a stream.

Consider 1 substance from patent publication US20160195541A1.

Sequence of UniProt P31994 (P31994 43-310): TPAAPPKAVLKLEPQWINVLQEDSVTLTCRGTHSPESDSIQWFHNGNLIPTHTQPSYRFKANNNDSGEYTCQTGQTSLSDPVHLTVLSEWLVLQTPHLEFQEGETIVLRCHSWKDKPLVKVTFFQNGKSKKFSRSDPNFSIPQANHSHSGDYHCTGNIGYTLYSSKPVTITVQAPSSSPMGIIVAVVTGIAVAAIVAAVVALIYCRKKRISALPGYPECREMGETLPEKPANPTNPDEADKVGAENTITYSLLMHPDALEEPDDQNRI

In the case of “aggregated human IgG (aggregated Beriglobin, aggregated fraction isolated by size exclusion chromatography) (antibody)”, the Median Signal in assay [1] was 238; in assay [2], 329; in assay [3], 466; in [4] it was 281; in assay [5], 478; in assay [6], 5310. Further, the Median Signal in assay [7] worked out at 3810; in assay [8], 831; in assay [9], 269; in assay [11] it was 2330; in assay [12], 1640. Further, the Median MFI (mean) in assay [10] amounted to 1110. The percent of gated viable cells in the upper right quadrant of the dot plot (PE-A above about 10^3) in assay [13] was 84.7. In addition, the Median PE-A fluorescence, 0 µg/µL CSA in assay [14] was determined as 3480. In assay [15], this substance registered a Median MFI at pH 6.7 of 578.
